The numbers were not newly measured in publication PMC5668312, which cites them from elsewhere.

In data set [1] the target is Vps2 (Saccharomyces cerevisiae) (UniProt P36108).
A further data set has as its target CHMP1B (Homo sapiens) (UniProt Q7LBR1).

Sequence of spastin MIT (Q9UBP0 117-198): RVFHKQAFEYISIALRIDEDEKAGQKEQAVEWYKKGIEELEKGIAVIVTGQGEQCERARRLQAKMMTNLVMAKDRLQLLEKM
Sequence of Vps2 (Saccharomyces cerevisiae) (P36108 whole entry): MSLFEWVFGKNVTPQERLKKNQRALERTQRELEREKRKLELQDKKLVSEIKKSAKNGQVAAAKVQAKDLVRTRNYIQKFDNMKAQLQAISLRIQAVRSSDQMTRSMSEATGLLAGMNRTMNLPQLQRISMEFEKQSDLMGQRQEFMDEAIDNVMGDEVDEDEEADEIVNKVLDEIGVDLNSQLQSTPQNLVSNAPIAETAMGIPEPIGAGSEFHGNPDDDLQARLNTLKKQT
Sequence of Vps4 MIT (P52917 1-83): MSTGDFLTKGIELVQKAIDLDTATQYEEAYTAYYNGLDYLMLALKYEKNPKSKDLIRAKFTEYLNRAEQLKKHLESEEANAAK
Sequence of CHMP1B (Homo sapiens) (Q7LBR1 whole entry): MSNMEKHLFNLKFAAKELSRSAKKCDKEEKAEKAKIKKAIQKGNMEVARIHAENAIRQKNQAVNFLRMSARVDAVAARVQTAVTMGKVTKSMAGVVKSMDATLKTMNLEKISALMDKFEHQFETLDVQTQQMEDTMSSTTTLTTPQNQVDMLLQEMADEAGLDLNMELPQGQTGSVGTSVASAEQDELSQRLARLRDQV

What is called Kd is the equilibrium constant for the complex coming apart. For the substance Vps4 MIT (from UniProt P52917), the Kd in data set [1] is 30 µM.
As for spastin MIT (from UniProt Q9UBP0), the Kd with CHMP1B (Homo sapiens) is 12 µM.
